Assay results from patent publication US20200040059A1.
Values belong to the substance of their own block, whether it stands above or below them.

Columns and labels:
[1] = target: PD-1 (Homo sapiens (Human)) (UniProt Q15116); assay: flow cytometry, Jurkat/PD-1 cells
[2] = target: PD-1-Fc; assay: Fortebio (BLI), PD-1-Fc
[3] = target: PD-1 on Jurkat/PD-1 cells; assay: flow cytometry on Jurkat/PD-1 cells, 50 nM
[4] = target: PD-1 on Jurkat/PD-1 cells; assay: flow cytometry, 50 nM; ratio to wild type PD-L1 IgV-Fc
[5] = target: T1, CD226 (human) (UniProt Q15762); assay: flow cytometry, transfected cells
T1 sequence: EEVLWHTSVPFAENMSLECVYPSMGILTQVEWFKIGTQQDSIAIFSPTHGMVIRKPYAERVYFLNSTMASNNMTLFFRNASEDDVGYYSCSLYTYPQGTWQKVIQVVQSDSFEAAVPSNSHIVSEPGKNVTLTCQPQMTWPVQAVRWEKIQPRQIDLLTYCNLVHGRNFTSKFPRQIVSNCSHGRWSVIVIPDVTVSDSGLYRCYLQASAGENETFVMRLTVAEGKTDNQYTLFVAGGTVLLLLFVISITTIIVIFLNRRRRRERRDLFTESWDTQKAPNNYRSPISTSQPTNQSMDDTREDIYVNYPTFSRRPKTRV

[6] = target: T2, TIGIT (human) (UniProt Q495A1); assay: flow cytometry, transfected cells
T2 sequence: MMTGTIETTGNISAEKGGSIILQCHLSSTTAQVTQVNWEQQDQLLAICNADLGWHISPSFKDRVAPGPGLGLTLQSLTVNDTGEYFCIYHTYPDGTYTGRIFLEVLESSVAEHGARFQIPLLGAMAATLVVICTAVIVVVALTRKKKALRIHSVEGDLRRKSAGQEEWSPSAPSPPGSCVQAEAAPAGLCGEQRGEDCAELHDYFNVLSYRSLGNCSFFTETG

[7] = target: T3, CD96 (UniProt P40200); assay: flow cytometry, cells
T3 sequence (looked up): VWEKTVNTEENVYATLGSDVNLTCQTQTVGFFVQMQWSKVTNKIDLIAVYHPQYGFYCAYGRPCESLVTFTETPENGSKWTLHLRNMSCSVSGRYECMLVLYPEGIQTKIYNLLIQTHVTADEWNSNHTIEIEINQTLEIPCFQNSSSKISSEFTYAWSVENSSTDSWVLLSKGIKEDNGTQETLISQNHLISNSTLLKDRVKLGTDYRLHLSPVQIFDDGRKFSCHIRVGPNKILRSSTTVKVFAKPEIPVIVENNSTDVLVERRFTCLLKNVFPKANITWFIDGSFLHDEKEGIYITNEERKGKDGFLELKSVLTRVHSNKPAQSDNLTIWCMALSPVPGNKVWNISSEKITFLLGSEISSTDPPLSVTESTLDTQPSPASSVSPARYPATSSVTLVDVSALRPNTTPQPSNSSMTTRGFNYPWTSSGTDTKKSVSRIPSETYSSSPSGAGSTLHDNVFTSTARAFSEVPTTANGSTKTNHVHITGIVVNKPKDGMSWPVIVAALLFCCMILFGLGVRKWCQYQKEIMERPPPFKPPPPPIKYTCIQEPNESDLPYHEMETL

[8] = target: T3, CD96; assay: flow cytometry, CD96-expressing cells
[9] = target: T2, TIGIT (human); assay: flow cytometry, TIGIT-expressing cells
[10] = target: human B7-H6 (human) (UniProt Q68D85); assay: flow cytometry, transfected cells
[11] = target: PD-L1 (human) (UniProt Q9NZQ7); assay: flow cytometry, transfected cells
[12] = target: CD28 (human) (UniProt P10747); assay: flow cytometry, transfected cells
[13] = target: T3, CD96; assay: flow cytometry on CD96-expressing cells
[14] = target: T1, CD226 (human); assay: flow cytometry on CD226-expressing cells
[15] = target: T1, CD226 (human); assay: flow cytometry, CD226-expressing cells
[16] = target: human B7-H6, full-length, expressed on transfected Expi293 cells (human) (UniProt Q68D85); assay: flow cytometry on B7-H6-expressing Expi293 cells
[17] = target: human CD28, full-length, expressed on transfected Expi293 cells (human) (UniProt P10747); assay: flow cytometry on CD28-expressing Expi293 cells

PD-1 (Homo sapiens (Human)), sequence (Q15116 21-288 limits assumed, form in doubt): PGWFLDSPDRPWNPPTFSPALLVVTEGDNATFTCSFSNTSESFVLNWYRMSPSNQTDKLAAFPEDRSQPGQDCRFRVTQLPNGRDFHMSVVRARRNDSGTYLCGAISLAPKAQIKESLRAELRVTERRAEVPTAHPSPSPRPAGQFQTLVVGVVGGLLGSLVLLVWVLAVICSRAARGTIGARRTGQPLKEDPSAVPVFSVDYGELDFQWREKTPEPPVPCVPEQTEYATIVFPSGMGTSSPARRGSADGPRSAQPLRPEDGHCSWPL
Domain 1: CD86 WT / Domain 2: CD80 WT / Fc (Fc fusion), sequence (chain): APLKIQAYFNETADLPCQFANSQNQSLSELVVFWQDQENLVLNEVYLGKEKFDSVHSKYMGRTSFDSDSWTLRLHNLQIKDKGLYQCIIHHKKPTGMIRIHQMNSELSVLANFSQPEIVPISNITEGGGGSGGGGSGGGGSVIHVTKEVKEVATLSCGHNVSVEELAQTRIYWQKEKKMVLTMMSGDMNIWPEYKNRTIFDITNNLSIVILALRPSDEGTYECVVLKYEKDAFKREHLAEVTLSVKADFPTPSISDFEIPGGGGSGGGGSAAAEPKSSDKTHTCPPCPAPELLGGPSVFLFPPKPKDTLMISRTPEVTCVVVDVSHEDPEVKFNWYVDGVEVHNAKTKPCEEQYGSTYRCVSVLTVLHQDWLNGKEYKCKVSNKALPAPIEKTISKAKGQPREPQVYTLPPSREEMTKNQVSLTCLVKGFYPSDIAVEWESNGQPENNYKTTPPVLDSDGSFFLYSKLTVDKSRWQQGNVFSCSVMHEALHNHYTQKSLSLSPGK
PD-L1 (human), sequence (Q9NZQ7 19-290 limits assumed): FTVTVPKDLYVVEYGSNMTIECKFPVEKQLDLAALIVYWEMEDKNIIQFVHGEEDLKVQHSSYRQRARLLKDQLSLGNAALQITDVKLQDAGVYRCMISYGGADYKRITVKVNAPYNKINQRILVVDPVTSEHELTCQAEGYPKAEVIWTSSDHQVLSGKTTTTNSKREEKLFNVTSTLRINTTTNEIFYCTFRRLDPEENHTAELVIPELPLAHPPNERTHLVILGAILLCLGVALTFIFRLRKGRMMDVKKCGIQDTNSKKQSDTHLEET
human B7-H6, full-length, expressed on transfected Expi293 cells (human), sequence (Q68D85 25-454): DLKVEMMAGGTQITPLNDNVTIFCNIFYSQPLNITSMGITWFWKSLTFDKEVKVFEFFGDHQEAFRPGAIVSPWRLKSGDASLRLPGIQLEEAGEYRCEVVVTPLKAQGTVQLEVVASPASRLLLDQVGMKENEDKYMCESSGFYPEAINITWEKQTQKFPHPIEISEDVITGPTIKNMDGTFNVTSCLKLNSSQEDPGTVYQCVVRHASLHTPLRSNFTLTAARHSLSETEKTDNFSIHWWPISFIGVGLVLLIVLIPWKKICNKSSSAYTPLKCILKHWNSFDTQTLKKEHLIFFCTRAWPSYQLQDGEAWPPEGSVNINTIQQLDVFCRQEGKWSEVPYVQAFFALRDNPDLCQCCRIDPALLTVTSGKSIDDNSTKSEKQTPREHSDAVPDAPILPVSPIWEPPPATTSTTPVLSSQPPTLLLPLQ
human B7-H6 (human), sequence (Q68D85 25-454): as above

Substance: variant PD-L2 IgV-Fc I13V, H15Q, T37A, E44D, S48C, S67L, Q82R, V89D (Fc fusion)
MFI at 50 nM [1]: 47600
Fortebio binding to PD-1-Fc Response Units (Response Units) [2]: 1.25

Substance: PD-L1 IgV A33D, S75P, D104G Fc fusion
MFI at 50 nM [3]: 251
Fold increase over wildtype PD-L1 IgV-Fc [4]: 0 fold

Substance: CD155 variant IgV-Fc P18L, E37S, Q62M, G80S, A81P, G99Y, S112N (from UniProt P15151 24-139) (Fc fusion)
MFI at 100 nM [8]: 3340 MFI
MFI at 100 nM [9]: 5900 MFI

Substance: Domain 1: CD86 WT / Domain 2: Nkp30 WT / Fc (Fc fusion)
MFI [10]: 129000

Substance: CD155 variant IgV-Fc P18S, S65W, S67A, M90V, V95A, L104Q, G111R (from UniProt P15151 24-139) (Fc fusion)
MFI at 100 nM [8]: 2570 MFI

Substance: CD155 variant IgV-Fc P18F, T26M, L44V, Q62K, L79P, F91S, L104M, G111D (from UniProt P15151 24-139) (Fc fusion)
MFI at 100 nM [8]: 1630 MFI

Substance: CD155 A81V, L83P IgV-Fc (from UniProt P15151 24-139) (Fc fusion)
MFI [6]: 2910
MFI [7]: 2620

Substance: variant PD-L2 IgV-Fc E44D, V89D, W91R (Fc fusion)
MFI at 50 nM [1]: 614

Substance: CD112 variant Y33H, S118T IgV-Fc (from UniProt Q92692 32-156) (Fc fusion)
MFI at 100 nM [13]: 5000 MFI
MFI at 100 nM [14]: 17700 MFI

Substance: variant PD-L2 IgV-Fc H15Q, Q82R, V89D (Fc fusion)
MFI at 50 nM [1]: 49700
Fortebio binding to PD-1-Fc Response Units (Response Units) [2]: 1.2

Continued, values first:

MFI [5]: 5140
MFI [6]: 4070
MFI [7]: 3280
Substance: CD155 P18L, L79V, F91S IgV-Fc (from UniProt P15151 24-139) (Fc fusion)

MFI at 50 nM [1]: 32100
Fortebio binding to PD-1-Fc Response Units (Response Units) [2]: 0.4
Substance: variant PD-L2 IgV-Fc H15Q, N24S, T47A, Q72H, R76G, V89D (Fc fusion)

MFI [11]: 1520
MFI [12]: 4950
Substance: Domain 1: CD86 WT / Domain 2: CD80 WT / Fc (Fc fusion)

MFI at 100 nM [13]: 1100 MFI
Substance: CD112 ECD-Fc (from UniProt Q92692 32-360) (Fc fusion)

MFI at 100 nM [14]: 15600 MFI
Substance: CD112 variant Y33H, A46T, Q79R, N106I, S118F IgV-Fc (from UniProt Q92692 32-156) (Fc fusion)

MFI at 100 nM [8]: 22800 MFI
MFI at 100 nM [15]: 18300 MFI
Substance: CD155 variant IgV-Fc P18S, L79P, L104M, T107M (from UniProt P15151 24-139) (Fc fusion)

MFI [5]: 3590
MFI [6]: 2940
MFI [7]: 2510
Substance: CD155 P18T, F91S, R94H IgV-Fc (from UniProt P15151 24-139) (Fc fusion)

MFI at 50 nM [3]: 67000
Fold increase over wildtype PD-L1 IgV-Fc [4]: 12.8 fold
Substance: PD-L1 IgV I20L, D43G, N45D, N78I Fc fusion

MFI at 100 nM [8]: 3700 MFI
Substance: CD155 variant IgV-Fc P18H, S42G, T45I, S52T, G53R, S54H, V57L, H59E, T61S, S65D, E68G, L104N (Fc fusion)

MFI at 50 nM [1]: 830
Substance: variant PD-L2 IgV-Fc H15Q, C23S, I86T (Fc fusion)

MFI at 50 nM [3]: 69500
Fold increase over wildtype PD-L1 IgV-Fc [4]: 13.3 fold
Substance: PD-L1 IgV I20L, E27G, D43G, N45D, V58A, N78I Fc fusion

MFI [16]: 64500 MFI
MFI [17]: 6340 MFI
Substance: stacked Fc fusion, Domain 1: NKp30 WT / Domain 2: ICOSL WT

MFI at 100 nM [8]: 2220 MFI
MFI at 100 nM [9]: 125000 MFI
MFI at 100 nM [15]: 2110 MFI
Substance: CD155 variant IgV-Fc P18S, T45S, T61K, S65W, S67A, F91S, G111R (from UniProt P15151 24-139) (Fc fusion)
